Measured values reported in US10357539B2, “Use of peptides that block metadherin-SND1 interaction as treatment for cancer” (THE TRUSTEES OF PRINCETON UNIVERSITY, priority 2014, dated 2019).
Changes are numbered by the printed parent chain. Names may count otherwise. “Also recorded” adds a separate entry of the source.

T1: SND1 (Homo sapiens, UniProt Q7KZF4)
T1 construct: Full-length HA-tagged SND1 was co-expressed with full-length Myc-tagged wild-type (WT) or mutant MTDH in HEK293T cells; expressed in transfected cells; host or cells: HEK293T
T1 sequence (Q7KZF4 1-910): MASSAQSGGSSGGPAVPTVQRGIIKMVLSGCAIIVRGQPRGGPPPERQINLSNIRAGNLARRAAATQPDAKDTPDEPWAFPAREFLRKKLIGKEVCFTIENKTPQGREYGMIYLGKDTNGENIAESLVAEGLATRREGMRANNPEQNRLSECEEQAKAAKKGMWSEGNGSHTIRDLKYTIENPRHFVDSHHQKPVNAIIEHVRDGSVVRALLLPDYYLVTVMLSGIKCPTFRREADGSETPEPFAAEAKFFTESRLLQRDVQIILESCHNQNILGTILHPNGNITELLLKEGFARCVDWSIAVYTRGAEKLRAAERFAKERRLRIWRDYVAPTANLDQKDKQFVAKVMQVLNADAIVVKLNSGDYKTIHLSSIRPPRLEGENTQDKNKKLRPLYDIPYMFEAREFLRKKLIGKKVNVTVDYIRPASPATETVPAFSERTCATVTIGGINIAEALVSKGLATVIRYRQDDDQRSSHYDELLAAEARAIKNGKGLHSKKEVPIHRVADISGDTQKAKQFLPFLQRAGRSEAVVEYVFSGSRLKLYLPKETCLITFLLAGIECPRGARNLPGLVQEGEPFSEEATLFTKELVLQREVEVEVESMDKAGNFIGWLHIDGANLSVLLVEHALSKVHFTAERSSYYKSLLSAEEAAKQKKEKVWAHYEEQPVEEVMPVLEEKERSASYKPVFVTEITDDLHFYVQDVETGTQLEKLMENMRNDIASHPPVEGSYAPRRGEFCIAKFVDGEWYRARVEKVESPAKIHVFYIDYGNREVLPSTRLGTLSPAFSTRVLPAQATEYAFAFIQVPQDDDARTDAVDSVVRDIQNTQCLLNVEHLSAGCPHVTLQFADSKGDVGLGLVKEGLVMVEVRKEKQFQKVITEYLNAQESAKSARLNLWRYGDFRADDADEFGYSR

T2: SND1 (Homo sapiens, UniProt Q7KZF4)
T2 construct: 15 μg of His-SND1 (16-339) was added to the resin; made in house; host or cells: E. coli DH5α
T2 sequence (Q7KZF4 16-339): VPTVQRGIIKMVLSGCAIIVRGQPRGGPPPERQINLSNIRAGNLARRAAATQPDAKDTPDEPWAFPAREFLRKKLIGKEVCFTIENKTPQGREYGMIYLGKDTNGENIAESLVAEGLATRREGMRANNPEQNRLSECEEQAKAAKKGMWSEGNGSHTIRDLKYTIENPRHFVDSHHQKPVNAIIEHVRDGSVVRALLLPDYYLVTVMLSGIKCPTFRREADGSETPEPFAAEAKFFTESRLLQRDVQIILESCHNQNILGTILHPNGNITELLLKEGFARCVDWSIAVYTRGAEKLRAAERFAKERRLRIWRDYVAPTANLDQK

B1: WT MTDH: full-length Myc-tagged wild-type human MTDH (protein, UniProt Q86UE4 1-582, looked up)
chain: MAARSWQDELAQQAEEGSARLREMLSVGLGFLRTELGLDLGLEPKRYPGWVILVGTGALGLLLLFLLGYGWAAACAGARKKRRSPPRKREEAAAVPAAAPDDLALLKNLRSEEQKKKNRKKLSEKPKPNGRTVEVAEGEAVRTPQSVTAKQPPEIDKKNEKSKKNKKKSKSDAKAVQNSSRHDGKEVDEGAWETKISHREKRQQRKRDKVLTDSGSLDSTIPGIENTITVTTEQLTTASFPVGSKKNKGDSHLNVQVSNFKSGKGDSTLQVSSGLNENLTVNGGGWNEKSVKLSSQISAGEEKWNSVSPASAGKRKTEPSAWSQDTGDANTNGKDWGRSWSDRSIFSGIGSTAEPVSQSTTSDYQWDVSRNQPYIDDEWSGLNGLSSADPNSDWNAPAEEWGNWVDEERASLLKSQEPIPDDQKVSDDDKEKGEGALPTGKSKKKKKKKKKQGEDNSTAQDTEELEKEIREDLPVNTSKTRPKQEKAFSLKTISTSDPAEVLVKNSQPIKTLPPATSTEPSVILSKSDSDKSSSQVPPILQETDKSKSNTKQNSVPPSQTKSETSWESPKQIKKKKKARRET
modifications: full-length Myc tag
B2: W401D: MTDH single point mutant W401D (protein, UniProt Q86UE4 1-582, looked up, variant W401D)
Protein LYRIC: B1 chain with W401D
B3: W394A: MTDH mutant W394A (protein, UniProt Q86UE4 1-582, looked up, variant W394A)
Protein LYRIC: B1 chain with W394A
B4: W394D: MTDH single point mutant W394D (protein, UniProt Q86UE4 1-582, looked up, variant W394D)
Protein LYRIC: B1 chain with W394D
B5: E400R: MTDH single point mutant E400R (protein, listed as Homo sapiens)
chain: B1 chain with A78S, T317A, E400R
B6: N395A: MTDH mutant N395A (protein)
chain: YQWDVSRNQPYIDDEWSGLNGLSSADPNSDWAAPAEEWGNWVDEERASLLKSQEPIPDDQKVSDDDKEKGEGALPTGKSKKKKKKKKKQGEDNSTAQDTEELEKEIREDLPVNTSKTRPKQEKAFSLKTISTSDPAEVLVKNSQPIKTLPPATSTEPSVILSKSDSDKSSSQVPPILQETDKSKSNTKQNSVPPSQTKSETSWESPKQIKKKKKARRET
modifications: left off: a dimerising Fc or GST
B7: E400A: MTDH mutant E400A (protein)
chain: B6 chain with A32N, E37A
modifications: left off: a dimerising Fc or GST
B8: N403A: MTDH mutant N403A (protein)
chain: B6 chain with A32N, N40A
modifications: left off: a dimerising Fc or GST

Molecular target: T1, SND1
Test: Co-immunoprecipitation of full-length Myc-MTDH (WT or mutant) and HA-SND1 in HEK293T cells
Assay type: cell-based
Details: HEK293T cell lysates, immunoprecipitation and immunoblot
Description: (§1) FIGS. 7A-E represents determination of key regions and residues mediating the MTDH-SND1 interaction. (FIG. 7A) Schematics of MTDH fragments and mutants with indicated SND1-binding capability. + indicates binding and − indicates no binding based on results shown below. Two putative nuclear localization signals are residues 432-451 for NLS2 and residues 561-580 for NLS3. In the enlarged view of the minimal binding region 386-407, 9 residues were targeted for mutagenesis in the current study. […] (FIG. 7B) Pulldown of His6-SND1AC by GST-tagged MTDH fragments with indicated boundaries. The bound proteins were examined by SDS-PAGE and visualized by Coomassie blue staining. (FIG. 7C) Pulldown of His6-SND1ΔC by GST-tagged WT or triple mutant MTDH fragments (364-582). For (FIG. 7B) and (FIG. 7C), 1/10 of the His6-SND1ΔC input was shown, and GST alone was used as a negative control. Representative results of 3 independent experiments are shown. (FIG. 7D, FIG. 7E) Lysates from HEK293T cells expressing the indicated ectopic human SND1, AGO2 or MTDH were immunoprecipitated with anti-Myc and immunoblotted with the indicated antibodies.
(§2) (FIG. 22A) In vitro pull-down of SND1 (16-339) by GST-tagged MTDH (364-582) harboring WT or mutant sequence. The proteins bound to GS4B were examined on SDS-PAGE and visualized by Coomassie blue staining. (FIG. 22B) In vitro pull-down of WT and mutant SND1 (16-339) by GST-tagged MTDH (364-582). The bound proteins were examined as in (FIG. 22A). For both (FIG. 22A) and (FIG. 22B), experiments were repeated three times; representative results are shown. The normalized percentage of binding was averaged from three experiments; mean±SEM was shown below the data. (FIG. 22C) HEK293T cells were transfected with human HA-SND1, WT Myc-MTDH or Myc-MTDH with indicated single point mutation. Lysates were immunoprecipitated with anti-Myc antibody and immunoblotted with the indicated antibodies. (FIG. 22D) HEK293T cells were transfected with human Myc-MTDH, WT HA-SND1 or mutant HA-SND1 with indicated single point mutations or deletions. Lysates were immunoprecipitated with anti-Myc and immunoblotted with the indicated antibodies.
Immunoprecipitation and western blot For immunoprecipitation (IP) experiments, cultured cells were washed in cold PBS and lysed in lysis buffer (20 mM Tris pH 7.4, 0.15 M NaCl, 1 mM EDTA, 1 mM EGTA, 1% Tx-100, 0.0025 M Na2P2O7, 1 mM α-glycerolphosphate, 1 mM Na3VO4, and 1 mM NaF) with an EDTA-free protease inhibitor mixture (Roche Applied Science) and PMSF. Cell lysates were then incubated on ice for 10 min, centrifuged, and precleared by incubating with protein A/G beads (Santa Cruz Biotechnology) for 1 h at 4° C. For IP bead preparation, 30 μl of protein A/G beads were incubated with 5 μg of antibodies for 2 h at 4° C. IPs were carried out for overnight at 4° C., and beads were centrifuged, washed and subsequently boiled for 5 min in SDS protein loading buffer to elute bound protein. IP lysates were subjected to western blotting with indicated antibodies.
Immunoprecipitation and western blot: For in vivo immunoprecipitation (IP) experiments, cultured cells were washed in cold PBS and lysed in lysis buffer (20 mM Tris pH 7.4, 0.15 M NaCl, 1 mM EDTA, 1 mM EGTA, 1% Tx-100, 0.0025 M Na2P2O7, 1 mM β-glycerolphosphate, 1 mM Na3VO4, and 1 mM NaF) with an EDTA-free protease inhibitor mixture (Roche Applied Science) and PMSF. Cell lysates were then incubated on ice for 10 min, centrifuged, and precleared by incubating with protein A/G beads (Santa Cruz Biotechnology) for 1 h at 4° C. For IP bead preparation, 30 μl of protein A/G beads were incubated with 5 μg of antibodies for 2 h at 4° C. IPs were carried out for overnight at 4° C., and beads were centrifuged, washed and subsequently boiled for 5 min in SDS protein loading buffer to elute bound protein. IP lysates were subjected to western blotting with indicated antibodies.

Molecule | interaction of full-length MTDH (WT or mutant) with HA-SND1
B1 | pulled down
B2 | partially abolished the binding; also recorded: significantly reduced the binding; also recorded: strongly reduced the binding
B3 | not
B4 | completely and not

Molecular target: T2, SND1
Test: GST-mediated pull-down of SND1 by GST-tagged MTDH fragments and mutants
Assay type: binding
Details: SND1 (16-339); GST-tagged MTDH (364-582)
Description: as §1, §2
GST-Mediated Pull-Down Assay: ˜20 μg of GST-MTDH (different truncation forms and site mutants) was bound to 10 μl of glutathione resin via GST tag. The resin was washed with 200 μl assay buffer (25 mM Tris, PH8.0, 150 mM NaCl, 3 mM DTT) three times to remove the excess unbound protein. 15 μg of His-SND1 (16-339) was added to the resin in a 100 μl volume suspended in the assay buffer with 2 mg/ml of BSA. The mixture was washed with 200 μl assay buffer twice before examined by SDS-PAGE, and visualized by Coomassie blue staining. The experiments were repeated 3 times and the ratio of SND1 associated with GST-MTDH was analyzed by ImageJ.

Molecule | SND1-binding of MTDH (364-582) point mutants, in vitro
B2 | abolished or significantly reduced the interaction
B5 | barely had any effect
B3 | abolished or significantly reduced the interaction
B4 | abolished or significantly reduced the interaction
B6 | barely had any effect
B7 | barely had any effect
B8 | barely had any effect
